Paper PMC2808332, “Expanding the Substantial Interactome of NEMO Using Protein Microarrays” (PLoS ONE, 2010)

Target: T1, NEMO (NF-κB essential modulator), tag-free, biotinylated (human, UniProt Q9Y6K9 1-419, biotin (in vitro biotinylation kit, biotin:NEMO molar ratio 9:1))
T1 construct: NEMO, NF-κB essential modulator, human, 48 kDa; also called biotinylated NEMO; biotin-NEMO; source: E. coli BL21(DE3), purified (glutathione sepharose), GST removed with thrombin, biotinylated in vitro
Test: peptide or protein array; Invitrogen Protoarray v4.0, about 8,400 human proteins spotted on nitrocellulose-coated glass slides; 10 µg biotinylated tag-free NEMO in 120 µl probing buffer (PBS, 0.5 mM DTT, 5 mM MgCl2, 5% glycerol, 0.05% Triton X-100), 4°C, 1.5 h; bound NEMO detected with labelled streptavidin; hits Z-score > 3, hits of the biotin-GST control array subtracted
Settings: both partners purified

B1: Centrin EF-hand protein 3 (natural protein, human, UniProt O15182 1-167, looked up)
chain: MSLALRSELVVDKTKRKKRRELSEEQKQEIKDAFELFDTDKDEAIDYHELKVAMRALGFDVKKADVLKILKDYDREATGKITFEDFNEVVTDWILERDPHEEILKAFKLFDDDDSGKISLRNLRRVARELGENMSDEELRAMIEEFDKDGDGEINQEEFIAIMTGDI
notes: Centrin EF-hand protein 3, human; also called CETN3; source: insect cell/baculovirus, purified, spotted (Invitrogen Protoarray v4.0)
B1: binds.

B2: Odontogenic, ameloblast associated (natural protein, human, UniProt A1E959 16-279, looked up)
chain: APLIPQRLMSASNSNELLLNLNNGQLLPLQLQGPLNSWIPPFSGILQQQQQAQIPGLSQFSLSALDQFAGLLPNQIPLTGEASFAQGAQAGQVDPLQLQTPPQTQPGPSHVMPYVFSFKMPQEQGQMFQYYPVYMVLPWEQPQQTVPRSPQQTRQQQYEEQIPFYAQFGYIPQLAEPAISGGQQQLAFDPQLGTAPEIAVMSTGEEIPYLQKEAINFRHDSAGVFMPSTSPKPSTTNVFTSAVDQTITPELPEEKDKTDSLREP
notes: Odontogenic, ameloblast associated, human; also called ODAM; source: insect cell/baculovirus, purified, spotted (Invitrogen Protoarray v4.0)
B2: binds.

B3: AMME chromosomal region gene 1-like (natural protein, human, UniProt Q6DCA0 1-310, looked up)
chain: MGKRRCVPPLEPKLAAGCCGVKKPKLSGSGTHSHGNQSTTVPGSSSGPLQNHQHVDSSSGRENVSDLTLGPGNSPITRMNPASGALSPLPRPNGTANTTKNLVVTAEMCCYCFDVLYCHLYGFPQPRLPRFTNDPYPLFVTWKTGRDKRLRGCIGTFSAMNLHSGLREYTLTSALKDSRFPPLTREELPKLFCSVSLLTNFEDASDYLDWEVGVHGIRIEFINEKGVKRTATYLPEVAKEQDWDQIQTIDSLLRKGGFKAPITSEFRKTIKLTRYRSEKVTISYAEYIASRQHCFQNGTLHAPPLYNHYS
notes: AMME chromosomal region gene 1-like, human; also called AMMECR1L; source: insect cell/baculovirus, purified, spotted (Invitrogen Protoarray v4.0)
B3: binds.

B4: Pleckstrin homology domain containing, family J member 1 (natural protein, human, UniProt Q9NW61 1-149, looked up)
chain: MRYNEKELQALSRQPAEMAAELGMRGPKKGSVLKRRLVKLVVNFLFYFRTDEAEPVGALLLERCRVVREEPGTFSISFIEDPERKYHFECSSEEQCQEWMEALRRASYEFMRRSLIFYRNEIRKVTGKDPLEQFGISEEARFQLSGLQA
notes: Pleckstrin homology domain containing, family J member 1, human; also called PLEKHJ1; source: insect cell/baculovirus, purified, spotted (Invitrogen Protoarray v4.0)
B4: binds.

B5: Arginine vasopressin-induced 1 (natural protein, human, UniProt Q5T686 1-147, looked up)
chain: MGTPASVVSEPPPWQAPIEARGRKQASANIFQDAELLQIQALFQRSGDQLAEERAQIIWECAGDHRVAEALKRLRRKRPPRQKPLGHSLHHCSRLRILEPHSALANPQSATETASSEQYLHSRKKSARIRRNWRKSGPTSYLHQIRH
notes: Arginine vasopressin-induced 1, human; also called AVPI1; source: insect cell/baculovirus, purified, spotted (Invitrogen Protoarray v4.0)
B5: binds.

B6: Acyl-Coenzyme A binding domain containing 6 (natural protein, human, UniProt Q9BR61 1-282, looked up)
chain: MASSFLPAGAITGDSGGELSSGDDSGEVEFPHSPEIEETSCLAELFEKAAAHLQGLIQVASREQLLYLYARYKQVKVGNCNTPKPSFFDFEGKQKWEAWKALGDSSPSQAMQEYIAVVKKLDPGWNPQIPEKKGKEANTGFGGPVISSLYHEETIREEDKNIFDYCRENNIDHITKAIKSKNVDVNVKDEEGRALLHWACDRGHKELVTVLLQHRADINCQDNEGQTALHYASACEFLDIVELLLQSGADPTLRDQDGCLPEEVTGCKTVSLVLQRHTTGKA
notes: also called ACBD6; source: insect cell/baculovirus, purified, spotted (Invitrogen Protoarray v4.0)
B6: binds.

B7: NOTCH-regulated ankyrin repeat protein (natural protein, human, UniProt Q7Z6K4 1-114, looked up)
chain: MSQAELSTCSAPQTQRIFQEAVRKGNTQELQSLLQNMTNCEFNVNSFGPEGQTALHQSVIDGNLELVKLLVKFGADIRLANRDGWSALHIAAFGGHQDIVLYLITKAKYAASGR
notes: NOTCH-regulated ankyrin repeat protein, human; also called NRARP; source: insect cell/baculovirus, purified, spotted (Invitrogen Protoarray v4.0)
B7: binds.

B8: Cyclic AMP phosphoprotein, 19 kDa (natural protein, human, UniProt P56211-1 1-112, looked up)
chain: MSAEVPEAASAEEQKEMEDKVTSPEKAEEAKLKARYPHLGQKPGGSDFLRKRLQKGQKYFDSGDYNMAKAKMKNKQLPTAAPDKTEVTGDHIPTPQDLPQRKPSLVASKLAG
notes: Cyclic AMP phosphoprotein, 19 kDa, human; also called ARPP-19; source: insect cell/baculovirus, purified, spotted (Invitrogen Protoarray v4.0)
B8: binds.

B9: Centaurin, alpha 2 (natural protein, human, UniProt Q9NPF8 1-381, looked up)
chain: MGDRERNKKRLLELLRAPDTGNAHCADCGAADPDWASYKLGIFICLNCCGVHRNFPDISRVKSVRLDFWDDSIVEFMIHNGNLRVKAKFEARVPAFYYIPQANDCLVLKEQWIRAKYERREFMADGETISLPGNREGFLWKRGRDNSQFLRRKFVLLAREGLLKYFTKEQGKSPKAVISIKDLNATFQTEKIGHPHGLQITYRRDGHTRNLFVYHESGKEIVDWFNALRAARLQYLKMAFPELPESELVPFLTRNYLKQGFMEKTGPKQKEPFKKRWFALDCHERRLLYYKNPLDAFEQGQVFLGNKEQGYEAYEDLPKGIRGNRWKAGLTIVTPERRFVLTCPSEKEQQEWLESLRGVLSSPLTPLNRLTASTESGRSSR
notes: Centaurin, alpha 2, human; also called CENTA2; source: insect cell/baculovirus, purified, spotted (Invitrogen Protoarray v4.0)
B9: binds.

B10: TBC1 domain family, member 7 (natural protein, human, UniProt Q9P0N9-1 1-293, looked up)
chain: MTEDSQRNFRSVYYEKVGFRGVEEKKSLEILLKDDRLDTEKLCTFSQRFPLPSMYRALVWKVLLGILPPHHESHAKVMMYRKEQYLDVLHALKVVRFVSDATPQAEVYLRMYQLESGKLPRSPSFPLEPDDEVFLAIAKAMEEMVEDSVDCYWITRRFVNQLNTKYRDSLPQLPKAFEQYLNLEDGRLLTHLRMCSAAPKLPYDLWFKRCFAGCLPESSLQRVWDKVVSGSCKILVFVAVEILLTFKIKVMALNSAEKITKFLENIPQDSSDAIVSKAIDLWHKHCGTPVHSS
notes: TBC1 domain family, member 7, human; also called TBC1D7; source: insect cell/baculovirus, purified, spotted (Invitrogen Protoarray v4.0)
B10: binds.

B11: G protein, γ-transducing activity polypeptide 1 (natural protein, human, UniProt P63211 1-74, looked up)
chain: MPVINIEDLTEKDKLKMEVDQLKKEVTLERMLVSKCCEEVRDYVEERSGEDPLVKGIPEDKNPFKELKGGCVIS
notes: G protein, γ-transducing activity polypeptide 1, human; also called GNGT1; source: insect cell/baculovirus, purified, spotted (Invitrogen Protoarray v4.0)
B11: binds.
